These results are taken from the domain aggregation screens of Martell et al. (2025).

The nature of this data set: soluble fraction after stress (log2 fold change); higher = more stays soluble; pooled small domains, quantitative proteomics. The note with it: stress: pH 4. The essentials:
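Pooled custom libraries of small protein domains were stressed at pH 4 and then measured by high-throughput quantitative proteomics. The fold change in the amount of each domain that stays soluble after the acid stress serves as a measure of aggregation propensity. Fold changes are given on a log2 scale, and higher values mean more of the domain stayed soluble.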
Consider “HMQISNEEELEKIIENVIESNPEKVKAYQSGKSGLIGFFMGQVMKESGGQANPNLVNQILKGKL”, for which the “soluble fraction (log2)” value was determined as 0.109. As for “HMQIYSQEIYDAQKVLKELGLYTSDLDGLNGPGTKRALRNFQSKSGLNADGVLGPLTKSALDKGEESYITV”, the figure is -0.0943; as for “HMQKADFDYGDYVDLGLAMGRQSRQLREAVGIKLGIGYANSKRFYQRLQTFGISLAELKQAVEEAENDQQN”, 0.149; as for “HMQKEMDIVLQINGKMRSNLKVSSTANDDEIIKTAIESDAYKKFSLGLRIQKTIIVPNRLINIVLEK”, at least 0.43. As to “HMQKIYTIARGDTLSHIVAGTLKQQGIAYTTGELYRLVNVVAQYNDILNPNRIYTGHQLDLTPLYSED”, the “soluble fraction (log2)” value is -0.434.

For “HMQKLLGPFEDFVKIKLDKYPDTKAAQMHDWLKEHYPDFPEVTPKTVYNFVMYVRQRHNIPIPD”, the “soluble fraction (log2)” value was -0.276. As for “HMQKTVLAASVYERMKERIMDQYYPPGERLNIDALAIDLAVSPTPIREALARLAAERLITFEAYKGYRVSP”, the figure is -0.637. To “HMQLEPLVTSVIPVNFAKASDISGTIKGKEVGLLSERGNITAENRTNVLIVKDIRKSVDEINAMVKRLD” belongs 0.151; to “HMQLFKFKNAMMELAKNKNITLDTAEKAIGLEAGFTELVARGVKELALSDVIKISKYFNTTMDSVLD”, -0.995; to “HMQLPFTPREHEITQLLSRGLSNRQIAEALSLSVRTVEGHIYQASTKLGISSRSELAVLVGQFA”, -0.967.

For the sequence “HMQLSQLLQPFDINAFKGHPLYTEENVKMFNDYTNRVKEWTKGTPYEQYWVTKEGQPTMLAWDSFKK”, the “soluble fraction (log2)” value was -1.07.

Take “HMQLTQEAIENLFKITTAKKFREELEKLVVTDSEKKAFAYFTVYHPKLKELPFAILKSVENYTGISI”: the “soluble fraction (log2)” value is -0.319. “HMQLVPGIGRLSARELEVFTLIGRGLGTSEIGKKLGVSAYTVQTHRNHIKEKLNLPNAAAITYWAIQWAHG”: the “soluble fraction (log2)” value is -0.338. As for “HMQMEDTDALLQVAKEVVAENQDTVEAYLGGREKAFASLIGAAMKKTRGKANPKVIRQLILDLIQ”, the figure is -0.432; as for “HMQMEISQRIKLERQTLKWTQEELADKIFVSKRTISNWETGRTVPDIESVLRLAKVFHVSLEDLLL”, -0.021; as for “HMQMEYEKAIAYILDKIKSGELSIGSKLPAERVIADTLHIGRNSTREALSILHGMGMVDRVHGSGNYISEH”, -0.111. In the case of “HMQMLQDPFLNALRKEHVPVSIYLVNGIKLQGQVESFDQYVVLLRNTSVTQMVYKHAISTIVPARAVSL”, the “soluble fraction (log2)” value is -0.412. Consider “HMQMRKENKILVTDIGEIDEVKVIFDDDNKPYLYSYNGEDEFYRPDETYKFFDNKEQAEEYVREN”, for which the “soluble fraction (log2)” value was -0.891. Turning to “HMQMSPREKMIYSFIESHPGTKSGEIAEKLNVPLPTVKRILSEMVSGNFIAKHGSGIGTNYSTEK”, the “soluble fraction (log2)” value was at least 0.43. To “HMQMSWDAVKARLQDIVNNEDKTKPFNDEMLASKLKEQGIEIARRTVVKYRQQLGIPAARLRKK” belongs -0.17; to “HMQNAETPDVAAEFRTWTSADGQFQVIAKLVKLDGESVHLERQDDGRQIAVPLGKLSSEDRLFLRGVRP”, -0.0636. As for “HMQNEQIAFSKFLQEVDSGRVVQVEIQGNNIKGILSDGSKFYTYSPNYPELVGKLSEKGVNIVASPVE”, the figure is 0.0117; as for “HMQNFLSITSKEKIDIGNFQLISFKFENNLYDYVISGNKSELLIFQEKTIENNNENIEKITSNF”, -0.847; as for “HMQNLETVEEIKELALNYLDKYQPSKKSLQVYLFRKAIDAQSNSVEKSEILKKIETVLTDLEEQGILNDAL”, -0.139. Regarding “HMQNMVYVATKDIPAGGVIDQDSVSKTAISTSIDTSLYITDDDLGKIAVVNISQGQSVFSNMVGT”, the “soluble fraction (log2)” value is -0.585.

As to “HMQNNITISKEIELRTGPDDTYPTLKKVTAGDNVEMLSKSDTWYEIKTNDSFVGWVPGWSIL”, the “soluble fraction (log2)” value is -0.656.

Regarding “HMQNSYSVEDLALKAGLSVDTIRYYQGLDLIAPPQKNGRRAIYGDEHLSRLDEIKKLALEGFSLRQISLLK”, the “soluble fraction (log2)” value is -1.02. To “HMQNYNLTQQEKKVLQLLVSGKSYKMIAAELNVAFDTVKSHITNIYSKLHVHSGTEAVSVAIRDKI” belongs 0.199. As for “HMQPDDELVRLLLIKIFNDKQLKVNPAVINYLLRRIDRSFESINNFVKKIDEFSLEKGRKITVNLVSGFF”, the “soluble fraction (log2)” value is -1.43. To “HMQPFTELTPREREILGHLAEGQSNKVIARHLDISDGTVKLHVKAILRKLGVHSRVEAAVMAVEHGIR” belongs 0.4; to “HMQPIEIQDRITKAFERSAALEAKNINVEVDGHTVKLTGTVHSLTEKEEARKAAFFAPGVTKVENHLIVDY”, -0.0498; to “HMQPMIQIHTLANHAPVALHIKRNTQRNIIIRARDASSLNLSIPKWFSPAQLQNWLRDNEATLIRILQQAP”, -0.256. Regarding “HMQPPKIISTVEPYREVVREYLKQGVEMTAIWQRLRENYQYTGSYSSVRRFVAQLEPRQPEA”, the “soluble fraction (log2)” value is -0.135. To “HMQPQLFRVIADDGLNIRSGPGPEYPPVAPMLRKGTQVELLQAGDRWSKVEVVGSTDVEGWVNQRYLQAV” belongs 0.0927; to “HMQPSQTLSATVEFPDRLDRFLALAFPEVSRARFQRLIAEGHVSVEGVPATEIRHKLKAGQRVEAVIPPA”, 0.197; to “HMQPTVEGLMKALETMTFNERTALALHYGLTGRQPMTFMAIGRYLGISDGRAEALVNSAIRKLR”, 0.0497. Consider “HMQQGVEQLPVTEVGGRLMHYYEVQPKETLYSLSHKLGVGQEYIEQHNPSVRGGLRAFMTLYFPAA”, for which the “soluble fraction (log2)” value is -0.12. As for “HMQQIAVDLSEFKPRLMRDMSSMLAGLYTHDLDLSSLDFSKVANFTFMFRGAIITGTLKMPKI”, the figure is 0.109. For the sequence “HMQQLDDDTVAYVADNGIAVKSKNGKELSVDTSGLSYDIIMDMFRNLPRNGDFFSSKYWSDNIQKAQAR”, the “soluble fraction (log2)” value is -1.34.

Turning to “HMQQLIEFSVTKGHPWINKKIMDLNLPENQLILTIQREGHVVSAEGKTIILENDRITISTDDR”, the “soluble fraction (log2)” value is -1.43. Take “HMQQPVVVQQNQTVRVVTGGPGFQVANEGRALNNGLAGQVVQVRLGNGQIISGIARAGGIVEIL”: the “soluble fraction (log2)” value came to 0.22. To “HMQQSQLDDIKSVVGGDEGYNKLREWTQANVPDETLKAFDKILDTQDPTMIKVAVEGFAAQMRQAE” belongs -0.508.

Turning to “HMQQTAEDWKNKGDSLTAQSEYVEAIAAYDEAIRLDPNYAPAWSNKGNALKNLGEYYKAIQAYDEAIRL”, the “soluble fraction (log2)” value was -1. As for “HMQQYLDAYDKALAFGIAMNKLPSYENLTLDDKEDVDKLKEIYDGMSNYEKTFVAKDFTDKLDRYVKRIE”, the figure is 0.144; as for “HMQRADYLILYYIKMQAEQHPDSKVYLADLAAVMGLKVTELSKAVEKLQDNGFVAWKTDREAGRTYVELS”, -0.89; as for “HMQRIFIDNHDRILYYSNPAGYIAGKEAVVDTMFQTQELERFLQKQSLSIRWEDGVYDRLLLGQ”, -0.725. To “HMQRRHESTPIPADFDYAAVRGLSAEVQQKLERVRPLSIGQAQRIPGMTPAAISLLLVHLERQRRSRV” belongs 0.00221; to “HMQRSVKNNDTVQVHYTGKLTNGQIFDSSIDKQPLEFQLGQGQIIPGFEKGLIDMTVSEKKTITIPEAEAY”, 0.133. For the sequence “HMQSAEMTLDREGQPVQVRVELTGNEARITFLSDQEQTREALDAGMAQLRELLEQQGMVLAGVTV”, the “soluble fraction (log2)” value is -0.491. On to “HMQSDQLSDREREILRLIGSGRTNQEISQELQVSGSTVRTHLQHILDKLGLENRNQAVLYAIRIGLAAPP”, for which the “soluble fraction (log2)” value is -0.372. For the sequence “HMQSHGSRIWTDITGNFTREASFIELAEGKVTLQLTDGRRTIISFEILSKKDQEYVLDIGDS”, the “soluble fraction (log2)” value is -1.95.

Take “HMQSKDDLLDTFRVVKGNAALLNDQNKKLIRSLKVSSFGFTGITDQAAEVKKEMPDVLLEKASIEDILF”: the “soluble fraction (log2)” value is -0.595.

As to “HMQSLAAKINGYIVAQRTSIAAIAKEIGYSRVTVSRYLAGKYDSDPTGIEAKLAAFLAGQTGEE”, the “soluble fraction (log2)” value came out at 0.114.

As to “HMQSNIHELQKKLNEALQALSEDHRAVVTMFDIQGMPHAEISKILGVSEGTVRSRLYYAHQQLQGHL”, the “soluble fraction (log2)” value was -0.663. In the case of “HMQSRYALLAGMLRARITEGDWVPGSAIPAETVLAKEHGVALGTMRQAIALLVSQGLLERQHGRGTFVRS”, the “soluble fraction (log2)” value is -0.0211. To “HMQSSDQTDNIYENAVSIVLETGKASASHLQRVLGIDYNLAAHLIDKMEDGGLLSPPNYLGHRDVYGYT” belongs -1.06; to “HMQTFNADDIEPIIKEILQENPKAISDFLTGNENVVKFLLGQVMKNTKGKANPKVIEELLINQLRELNN”, -0.663.

For “HMQTGYHVRITASTLNVRRDHSASSAVATQVRRGEVYTIVDEYNNGGTLWGKLKSGAGWIALKYTQS”, the “soluble fraction (log2)” value is at least 0.43. As for “HMQTTITITNTVTGQKAQFPPPFNPMSLSKIGVDETFEKEVFVDGVDTFGYGLDGYLTFYELKDFLRSYQ”, the figure is -2; as for “HMQVEYTRGELLQDLKEENVLYATITPSRETPTGEVDFVFKDKSIKTLYVTDVSEIEGLLMDYGIDPEVKK”, -0.367; as for “HMQVITEPFQEKYREFINMSTVTQRLEERETLSFTAQTVEGRWLTIIIVPQGYDKTGKLSTVLVANR”, 0.111. As for “HMQVSDEGAIQLLVQKAIEENPQAIEAFRGGKTSALGPVVGWVMKQSKGAANPTMVKTLLEKAI”, the figure is 0.378; as for “HMQVVVEKSKEKVIISGNQYYIHIVKKGETAFSIAKAYGITVDELVKNNPSAATVLKEGQALRIPVVE”, 0.22; as for “HMQYDESSQLGERFLNQALNALKADPDKVGDAQWEKLLKENSAKSRQEVLADIGLGKQLAIVIARELLS”, -0.37. As for “HMQYPSSLDSRAKQSLYDNLERNEILALALDNVIQSNKLDGWRDGGIKERKLRLAINNLLKNDEHTDNIME”, the figure is -0.284.

For the sequence “HMQYQIITENGKQYYLYTVQKSEGFYSIGKRFEITNDEIIKANPEAALGLKLGQVLKIPVYK”, the “soluble fraction (log2)” value is -0.131. Turning to “HMRAAKSEDTRTRLIEGGMALFGQKGYNATGIKDITDAAGVPKGSFYNYFASKEDFGAEIIHSY”, the “soluble fraction (log2)” value is -0.0559. On to “HMRAEELEQFVERLKNEVMNNFPLKELSDNELREKIENLVEIRLANVYVSIEQRVAIAEQIYSSIR”, for which the “soluble fraction (log2)” value was -0.633. As for “HMRAERVQITDPYIELHTGPGRGFPIFFVAPREQWISIELRHTDWFKVRAVGGQVGWVQRKQLEST”, the figure is -0.295.
